Test results from US20090239794A1, “HCV F PROTEIN AND USES THEREOF” (priority 2004, published 2009).
Several values for one entry are separate records, joined by “and”; a condition that tells them apart may be missing. Equal values may be shown once.

Test system: C57Bl/6 mice
Assay: Protocol 2: ARFP immunization of mice, total anti-ARFP Ig ELISA
Conditions: for Titer (ARFP-specific Ig) / ELISA optical density (total anti-ARFP Ig), serum dilution 1/50 / ELISA optical density (total anti-ARFP Ig), serum dilution 1/100 / ELISA optical density (total anti-ARFP Ig), serum dilution 1/200 / ELISA optical density (total anti-ARFP Ig), serum dilution 1/400 / ELISA optical density (total anti-ARFP Ig), serum dilution 1/800 / ELISA optical density (total anti-ARFP Ig), serum dilution 1/1600: individual mice
[1] = 1st immunization (day 0), blood taken prior to immunization, listed as ARFP
[2] = 2nd immunization (day 14), blood taken prior to immunization, listed as ARFP
[3] = 3d immunization (day 29), blood taken prior to immunization, listed as ARFP
[4] = Sacrifice (day 52), listed as ARFP

B1: Fmut8Δ11: truncated recombinant HCV-1a F protein lacking the first 11 N-terminal residues shared with core; SEQ ID NO: 12; produced in E. coli (protein)
chain: PNVTPTVAHRTSSSRVAVRSLVEFTCCRAGALDWVCARRGRLPSGRNLEVDVSLSPRHVGPRAGPGLSPGTLGPSMAMRAADGRDGSCLPVALGLVGAPQTPGVGRAIWVRSSIPSRAASPTSWGTYRSSAPPLEALPGPWRMASGFWRTA
modifications: Hepatitis C virus
Titer (ARFP-specific Ig) (1st immunization (day 0), blood taken prior to immunization): 0
ELISA optical density (total anti-ARFP Ig), serum dilution 1/50 [1]: 0.211 and 0.209 and 0.199 and 0.218 and 0.323 and 0.278 and 0.229 and 0.166 and 0.236 and 0.243 and 0.247 and 0.208 and 0.206 and 0.205 and 0.217
ELISA optical density (total anti-ARFP Ig), serum dilution 1/100 [1]: 0.128 and 0.115 (2×) and 0.174 and 0.208 and 0.186 and 0.171 and 0.152 and 0.161 (2×) and 0.145 and 0.134 and 0.132 and 0.142 and 0.127
ELISA optical density (total anti-ARFP Ig), serum dilution 1/200 [1]: 0.123 and 0.150 and 0.128 and 0.136 (2×) and 0.114 and 0.111 and 0.121 and 0.113 (2×) and 0.104 and 0.117 and 0.164 and 0.144 and 0.140
ELISA optical density (total anti-ARFP Ig), serum dilution 1/400 [1]: 0.132 and 0.164 and 0.114 and 0.118 and 0.116 and 0.121 and 0.133 and 0.115 and 0.104 and 0.110 and 0.120 and 0.128 and 0.191 and 0.138 and 0.126
ELISA optical density (total anti-ARFP Ig), serum dilution 1/800 [1]: 0.119 and 0.138 and 0.113 and 0.118 and 0.115 (2×) and 0.117 and 0.128 and 0.108 and 0.103 and 0.105 and 0.123 and 0.134 and 0.137 and 0.114
ELISA optical density (total anti-ARFP Ig), serum dilution 1/1600 [1]: 0.138 and 0.122 and 0.109 (2×) and 0.110 and 0.116 and 0.124 and 0.108 and 0.106 and 0.107 and 0.105 and 0.119 and 0.129 and 0.127 and 0.114
ELISA optical density (total anti-ARFP Ig), serum dilution 1/50 [2]: 0.370 and 0.625 and 0.303 and 0.339 and 0.421 and 3.852 and 0.552 and 0.270 and 2.758 and 0.505 and >4.000 (3×) and 0.189 and 3.567
ELISA optical density (total anti-ARFP Ig), serum dilution 1/100 [2]: 0.187 and 0.306 and 0.155 and 0.164 and 0.156 and 1.842 and 0.204 and 0.153 and 0.560 and 0.191 and 3.323 and 0.141 and 3.184 and >4.000 and 1.876
ELISA optical density (total anti-ARFP Ig), serum dilution 1/200 [2]: 0.168 and 0.183 and 0.128 and 0.126 and 0.133 and 1.337 and 0.149 and 0.124 and 0.295 and 0.144 and 2.201 and 0.112 and 3.227 and >4.000 and 1.851
ELISA optical density (total anti-ARFP Ig), serum dilution 1/400 [2]: 0.173 and 0.152 and 0.136 and 0.129 and 0.122 and 0.777 and 0.133 and 0.123 and 0.204 and 0.131 and 1.212 and 0.111 and 1.433 and 2.473 and 0.736
ELISA optical density (total anti-ARFP Ig), serum dilution 1/800 [2]: 0.156 and 0.130 and 0.123 and 0.121 (2×) and 0.539 and 0.125 and 0.124 and 0.173 and 0.122 and 0.622 and 0.113 and 0.790 and 2.199 and 0.427
ELISA optical density (total anti-ARFP Ig), serum dilution 1/1600 [2]: 0.137 and 0.126 and 0.118 and 0.122 and 0.119 and 0.546 and 0.125 and 0.146 and 0.154 and 0.115 and 0.337 and 0.113 and 0.462 and 1.296 and 0.271
Titer (ARFP-specific Ig) [2]: 0 (9×) and 200 (2×) and 50 and 400 (2×) and >1600
ELISA optical density (total anti-ARFP Ig), serum dilution 1/50 [3]: 3.831 and 3.849 and 3.373 and 3.573 and 2.987 and 2.874 and 2.626 and 3.470 and 3.517 and 1.225 and 3.635 and 0.801 and 3.936 and 3.926 and >4.000
ELISA optical density (total anti-ARFP Ig), serum dilution 1/100 [3]: 3.525 and 3.898 and 2.898 and 1.264 and 0.982 and 1.468 and 1.197 and 2.613 and 1.648 and 0.560 and >4.000 (2×) and 0.304 and 3.959 and 3.978
ELISA optical density (total anti-ARFP Ig), serum dilution 1/200 [3]: 2.387 and 3.359 and 1.364 and 1.013 and 0.684 and 0.906 and 0.657 and 3.189 and 1.518 and 0.303 and 3.924 and 0.240 and 3.936 and 3.853 and >4.000
ELISA optical density (total anti-ARFP Ig), serum dilution 1/400 [3]: 1.910 and 2.646 and 1.019 and 0.830 and 0.473 and 0.493 and 0.397 and 3.666 and 1.315 and 0.291 and 3.086 and 0.174 and 3.874 and 3.765 and >4.000
ELISA optical density (total anti-ARFP Ig), serum dilution 1/800 [3]: 1.316 and 1.965 and 0.647 and 0.556 and 0.366 and 0.536 and 0.266 and 3.106 and 1.194 and 0.218 and >4.000 and 0.188 and 3.874 and 3.903 and 3.429
ELISA optical density (total anti-ARFP Ig), serum dilution 1/1600 [3]: 0.770 and 1.960 and 0.558 and 0.428 and 0.284 and 0.513 and 0.298 and 3.423 and 1.055 and 0.187 and 3.573 and 0.266 and 3.907 and 3.939 and 3.210
Titer (ARFP-specific Ig) [3]: 800 and >1600 (7×) and 400 (2×) and 100 (2×) and 200 and 50 and 0
ARFP-specific Ig titer, mean+/−standard deviation (Protocol 2, before the 2nd immunization): 190.0+/−401.7
anti-ARFP Ig titer, mean+/−standard deviation (Protocol 2, day 29): 883.3+/−694.7
anti-ARFP Ig titer, mean+/−standard deviation (Protocol 2, day 52): 1493+/−272.0
ELISA optical density (total anti-ARFP Ig), serum dilution 1/50 [4]: 3.593 and 3.623 and 2.931 and 3.934 and 3.865 and >4.000 and 3.796 and 3.843 and 3.456 and 3.855 and 3.717 and 3.534 and 3.636 and 3.780 and 3.783
ELISA optical density (total anti-ARFP Ig), serum dilution 1/100 [4]: 3.071 and 3.581 and 2.555 and 3.459 and >4.000 (2×) and 3.873 and 3.848 and 3.622 and 3.966 and 1.524 and 2.193 and 3.518 and 2.628 and 3.952
ELISA optical density (total anti-ARFP Ig), serum dilution 1/200 [4]: 1.902 and 1.744 and 1.431 and 2.418 and 2.646 and >4.000 and 3.807 and 3.818 and 3.641 and 3.184 and 3.740 and 1.047 and 2.844 and 2.829 and 3.142
ELISA optical density (total anti-ARFP Ig), serum dilution 1/400 [4]: 1.187 and 1.526 and 0.987 and 1.257 and 2.378 and >4.000 and 3.802 and 3.891 and 3.742 and 3.885 and 3.660 and 1.001 and 3.548 and 3.151 and 3.752
ELISA optical density (total anti-ARFP Ig), serum dilution 1/800 [4]: 1.110 and 1.341 and 0.818 and 1.093 and 2.236 and >4.000 and 3.867 and 3.833 and 3.665 and 3.171 and 3.717 and 0.856 and 3.406 and 3.707 and 3.620
ELISA optical density (total anti-ARFP Ig), serum dilution 1/1600 [4]: 1.589 and 1.086 and 1.084 and 0.771 and 1.427 and >4.000 and 3.813 and 3.843 and 3.612 and 3.055 and 3.832 and 0.510 and 3.562 and 3.780 and 3.976
Titer (ARFP-specific Ig) [4]: >1600 (13×) and 800 (2×)
